Measured values: paper PMC2922993
One block for each substance: values may come before it.

Columns and labels:
[1] = target: JMJD2A double tudor domain (UniProt O75164); assay: ITC
[2] = target: inhibitor of growth 2 (ING2) PHD finger; assay: ITC
ING2 PHD finger = ING2 PHD finger (UniProt Q9H160); assay: ITC with soluble peptides; settings: reference: H3K4me3 peptide; sites T3
RAG2 PHD finger, 414-487 = RAG2 PHD finger, 414-487 (UniProt P21784); assay: ITC with soluble peptides; settings: reference: unphosphorylated H3K4me3 peptide

Sequence of JMJD2A double tudor domain (O75164 895-1011): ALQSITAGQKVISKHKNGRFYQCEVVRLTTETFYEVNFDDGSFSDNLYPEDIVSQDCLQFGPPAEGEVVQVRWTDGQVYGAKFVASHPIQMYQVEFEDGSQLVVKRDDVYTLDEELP

- Kd [1]: 1.8 µM
- Kd [2]: 19.9 µM
Substance: H3K4me3T6ph peptide (ITC)

- KD (ING2 PHD finger): lost; reference 0.98
- KD (RAG2 PHD finger, 414-487; sites T3): lost; reference 17.8
Substance: histone H3 (from UniProt P68431) H3K4me3 peptide with T3ph

- KD (RAG2 PHD finger, 414-487; sites T6): lost; reference 17.8
Substance: histone H3 (from UniProt P68431) H3K4me3 peptide with T6ph
